# Measurements published in the RNAGym collection of RNA variant scans (doi:10.1021/acssynbio.7b00057).
# B1: Pistol ribozyme (parent)
# chain: GGGUCGUUGUUCCAUAAUCGCGUGGAUAUGGCACGCAAGUUUCUACCGGGCACCGUAAAUGUCCGACUGGAGCCGUUCGGGCGGCUAUAAACAGACCUCAGGCCCGAAGCGUGGCGGCACCUGCCGCCGGUGGUAAAAAAGAUCGGAAGAGCACACGUCU
# Variants of: B1
# Experiment: aptazyme ON/OFF ratio, guanine; higher = stronger switching; co-transcriptional cleavage with and without guanine
row,Variant,aptazyme ON/OFF ratio
1,U7A U8G U10C U11C,2.69
2,U8A U10A C12G,1.16
3,U8C G9U U10A U11C C12G C13U,1.31
4,U7C U8C G9U U11A C12U C13U,1.2
5,U7C U8C G9U U11G C13A,1.21
6,U7G U8G G9A U10G U11C C12A C13A,1.17
7,U7C U8C G9C U10G U11A C12G,1.11
8,U7G U8A G9A U10G U11C C13U,1.05
9,U7G G9U U10C U11A,3.43
10,U7C U8C U10A C12U,1.12
11,U7C U8G U10G U11G C12A C13U,1.26
12,U8C G9A U10A U11A C12U C13U,1.19
13,U8G G9U U10A U11A C12A C13A,1.15
14,U7A U8A G9C U10C U11C,0.984
15,U7A U8A G9C U10G U11G C12A C13G,1.17
16,U7C G9U U11G C12A C13U,1.14
17,U7A U8C U11C C12G C13U,1.5
18,U8C G9C U10C U11A C12G C13G,1.08
19,U8C G9C U10C U11C C12G C13A,1.12
20,U7A U10G U11C C12U,1.09
21,U8A G9U U11C C12G C13U,1.16
22,U8A U10G U11A C12U C13G,1.35
23,U7C G9C C12G C13U,1.05
24,U7C U8C G9U U10G U11A C12U C13A,1.1

row,Variant,aptazyme ON/OFF ratio
1,U7A U8A G9U U10G C12U C13A,1.17
2,G9A U10C C12U,1.5
3,U7A U8G G9U U10A U11G C13A,1.14
4,U7G G9A U10A C12G C13G,1.12
5,U7C U8C U10A U11G C12U C13G,1.15
6,U7C U8C C12U C13G,1.2
7,U7C U8A G9C U11C C12G,1.11
8,U7C U8A G9U U10G U11G C12A,1.16
9,U7G U8G G9A U10A C13G,1.17
10,G9C U10A U11A C12G C13U,1.38
11,U7A U8G G9A U10G U11C C12G,1.38
12,U7C U8C G9C U11C C12A C13A,1.16
13,U7C U8A G9U U10A U11A C12U C13A,1.2
14,U8A U10C U11C C13A,1.01
15,U7A G9A U10A U11G C12U C13U,1.42
16,U7G U8G G9C U10G U11C C12G C13U,1.16
17,G9C U10C U11C C12A C13U,0.997
18,U7G U8A G9A U10A U11G C13U,1.16
19,U7A U8G G9C U10G C12A C13U,1.56
20,U7G U8C G9C U10C U11A C12A C13A,1.04
21,U7C U8A G9A U11A C12A C13U,1.08
22,U7G U8A U11C C13A,1.32
23,U8C U10C U11G C13A,1.26
24,U7C U8C G9A U11G C12A C13U,1.59

row,Variant,aptazyme ON/OFF ratio
1,U7C U8G G9U U11A C13U,1.28
2,U7C U10C U11G C12A C13U,1.33
3,U7A G9C U10C C12G,1.07
4,U7C U10C U11C C12A C13U,1.2
5,U7A U10G U11C C12A C13G,1.12
6,U7C U8C U11G C12A C13A,1.14
7,U7G U8C G9A U10G U11G C13U,1.38
8,U7C U8A G9A U10A U11C C13G,1.03
9,U7C U8A U10C U11G C12A,1.1
10,U7A U8C G9C U10A U11G C12G C13U,1.14
11,U7C U8A G9A U10C U11C C12A C13U,1.09
12,G9U U11C C13U,1.37
13,U7A U8C U10C U11G C12U C13U,1.28
14,U8G G9U U11A C12A C13G,1.22
15,U7G U8G G9C U10A U11C C12U,1.08
16,U7A U8A G9U U10C U11C C12U,1.02
17,U7C U8G G9U U10A U11G C12A C13G,1.14
18,U8G U11G C12U C13A,1.22
19,U8C G9C C12A,1.16
20,U7C U8C G9A U10C U11A C12U C13G,1.27
21,U7C U8C G9C U11C C12G C13U,1.01
22,U7G U8C G9C U10C U11G C12U C13U,1.08
23,G9U U11A C12U C13A,1.02
24,U7G U8A G9C U10C U11A C12U C13A,1.02

row,Variant,aptazyme ON/OFF ratio
1,U8A G9U U10C U11C C12U C13G,1.04
2,G9A U10G U11A C12G,1.33
3,U8C G9U U10C C13U,1.27
4,U7A U8A U10G U11A C13U,1.15
5,U7A U8G U10G U11G C12G C13U,1.18
6,U7G U8C G9C U11G,1.33
7,U8C G9U U11G C12U C13A,1.16
8,U7C U10A U11C C13U,1.01
9,U7C U8G U11G C12U C13A,1.11
10,U8C G9U U11G C13G,1.02
11,U7C U8A U10A U11G C13U,1.21
12,U7C U10A C12G C13G,1.14
13,U7A U8A U10C U11G C12U C13U,1.3
14,U7G G9A U10C C13G,1.08
15,G9A U10G U11A C12A C13U,1.1
16,U7C U8C G9C C12U,1.17
17,U8A G9C U10A C12A C13U,1.19
18,U7G G9A U10C U11C C12G C13U,1.03
19,U7C G9U U10A U11C C12A C13U,1.23
20,U7C G9U U10G U11C C12G C13A,1.06
21,U7A U8G G9A U10G U11A C12G C13A,1.15
22,U7A G9A U10A U11A C12A C13A,1.41
23,U7G U8G G9U U10C U11G C12G C13G,1.15
24,U7C U8G G9C U10G U11A C12A,1.34

row,Variant,aptazyme ON/OFF ratio
1,U8A G9C U10C U11A C12U C13A,1.07
2,U7C U8A G9A U10A U11C C12A C13A,1.17
3,U7G U8G G9U C12U C13G,1.14
4,U8G U10A C12G C13G,1.14
5,U8G G9U U11A C12A,1.42
6,G9A U10A U11A C12G C13A,1.26
7,U7C U10C C12A C13U,1.34
8,U10G U11G C12U C13G,1.3
9,U7A U8A G9C U10A U11G C13A,1.17
10,U7A U8C U10G U11A C12U C13U,1.2
11,U7C U8G G9A U10C U11C C12A,1.05
12,U7G U8C G9C U10A U11G C12U,1.26
13,U7G U8G U10A U11A C12G C13G,1.26
14,U8G U10G U11G,1.45
15,U7A U8C G9C U11G C13U,1.1
16,U7C U8A U10C U11G C12U C13U,1.35
17,U8C C12A C13G,1.1
18,U7A U8A G9U U11G C12U C13G,1.17
19,U7G G9C U10C U11G C12A C13U,1.08
20,U8A G9A U10G U11A C12G,1.24
21,U8C G9A U10G U11C C13G,1.07
22,U7A U8G U10C U11A C12A C13U,1.37
23,U7G U8A G9U U10C C12G C13A,1.28
24,U8A U10C U11A C12G C13A,1.15

row,Variant,aptazyme ON/OFF ratio
1,G9C U10A C12U C13G,1.17
2,U7C U8G G9U U11G C12G C13A,1.1
3,U7A U8G G9A U10C U11A C13U,1.2
4,U7G U8G U10C U11C C12U C13U,1.4
5,U7C U8G G9U C12G C13A,1.17
6,U7G U8A G9C U11A,1.14
7,U8C G9U U10G U11G C13G,1.13
8,U7C U8G G9U U10A U11A C12U,1.33
9,U8C G9A U11G C13G,1.27
10,U7G G9U U10C U11G C12A,1.13
11,U7C G9A U10C U11G C12A,1.28
12,U7G U8A G9C U10G U11A C12G,1.06
13,G9C U10C U11C C12U C13U,1.03
14,U7C U10C U11G C12G,1.3
15,U7G U8A G9C U10C U11A C13U,1.1
16,U7A U8G G9U U10A C12A C13A,1.31
17,U7G U8C G9U U10C U11G C12G C13G,1.11
18,U7C U8A G9A U10G U11A C12U C13A,1.11
19,U8C G9U U10A U11G C12G,1.23
20,U7C U8C G9A U10C U11G C12U C13A,1.45
21,U8G G9A U11C C12G C13A,1.17
22,U7A U8C G9U U10G U11C C12A,1.25
23,U7C U8A G9U C12A C13G,1.18
24,U7G U8A U10C U11C C12U C13G,1.25

row,Variant,aptazyme ON/OFF ratio
1,U8A G9C U10G C12U,1.28
2,U7C U8C U11G C12U,1.25
3,U7G U8C U10G U11G C12A C13A,1.09
4,U8A U10A U11G,1.17
5,U7C U8C G9U U10C U11C C12A,1.22
6,U7A U8C G9U U10G U11A C12A C13A,1.04
7,U7A U8G G9A U10A C13U,1.26
8,U10A C12A C13U,1.31
9,U7C U8A U10G U11A C12G,1.33
10,U8C G9C U10A U11A C12A,1.12
11,U7A U8C G9U U10G C12U C13G,1.72
12,U8A G9A U10C U11C C12A C13A,1.07
13,U8C U10A U11A C12U C13A,1.18
14,U7C G9C U10G C13A,1.11
15,U7A G9C U10C C12G C13G,1.07
16,U7G U8C G9U U10C C12A C13U,1.58
17,U8C G9U U10A C12U C13G,1.2
18,U7C U8G G9U U10A U11A C12G C13A,1.18
19,U7C U8G G9A U10A U11A C13U,1.12
20,U7A U10A U11C C12A C13A,1.1
21,U7A U8A U11C C12U C13A,1.21
22,U7A U8G G9U U10C C12U,1.66
23,U7A U8C G9C U10G C13U,1.14
